The supplement of paper PMC12042874
± gives the uncertainty stated by the source.

Assay: amyloid nucleation score (Sup35N fusion, yeast selection) (log enrichment); library NNK2; higher = more nucleation; inactive = no reads after selection
How it was run: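 The nucleation score is the log enrichment of output over input reads, calculated with DiMSum and centred on the mode score of non-aggregating sequences. Sequences with under 100 input reads were excluded. Reads came from Illumina sequencing of plasmid inserts from psi-negative yeast expressing Sup35N fused to peptides of 20 random codons, induced 24 hours with 100 μM copper sulfate and grown 7 days at 30°C without adenine and uracil.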

Substance	amyloid nucleation score
DNEMRYGDRSSVFI	1.32 ± 0.24
IDFQVVWSIFLENSKKHSTR	0.213 ± 0.8
WESLVETSSTLFLRECYNVF	-1.86 ± 0.53
FFIIMRYRLRDFTFVYSSPV	-0.627 ± 0.31
QCGRKFFDNRGGGLITPHPV	0.107 ± 0.42
LWHFVLWYMWLLIGDVVGVC	-0.459 ± 1.1
RYYKCVLVWRHQGDSHIRAT	-0.412 ± 0.63
LIDLKGQRSHGVTKGLTDFP	-0.406 ± 0.36
SCVYLDCLF	0.25 ± 0.6
TYLFYWSLGQRCMIF	inactive
TPHGIYEHLPQEY	-0.273 ± 0.49
YFSRWLFFYECKGDNLLRRE	-0.512 ± 0.76
PVYMFKYLVTLIWPHSKATF	0.102 ± 0.34
YRFHSTKRCINSGDNC	-0.14 ± 1
ISRQDRVQWWSYSSTRLA	4.94 ± 0.077
EALSLLSR	-0.22 ± 1
HIGHSWIGSALDTLAYEGYY	-0.49 ± 0.76
HSFLSGIKWLSSDLGDSVGY	-1.29 ± 0.62
VAVCMWTTNVCVI	7.804 ± 0.042
RHMWDHFCCFF	5.28 ± 0.094
FVSRRIVAIPLWLLVSEITS	-0.201 ± 0.38
NLSSWTVLILRSDAVVPVFL	4.07 ± 0.078
EDFVLWLMW	-0.641 ± 0.63
SCKNMGHVWFIVDVHHNRRL	inactive
RAFIINWALFGTRH	inactive

Substance	amyloid nucleation score
GVTPG	0.752 ± 0.16
VMMIQTVQFRLTSKSSGMSR	5.259 ± 0.043
RYFDWYNI	-1.28 ± 0.45
AARFELYSNWS	2.05 ± 0.21
SHEIVCTSVRSLTIFKQVQR	3.24 ± 0.059
TFHFQTRLCYLALYDHAIYA	-0.242 ± 0.79
IPLLCKFCSRGSRAKIYLMD	1.75 ± 0.095
QLQVSYYQRSGMFERFRLEW	2.46 ± 0.18
GDCQE	1.1 ± 0.23
IVTLVSDAYSKLTRLMNSVS	-0.561 ± 0.23
LSLFSYPLHAPFLTMVSWPY	-0.78 ± 0.78
LILWRA	0.456 ± 0.39
MITVFGLVTFVVIVSTESPI	3.8 ± 0.075
FQMVLYRYYTTGISGKLLQD	inactive
SFVVRTQMSGCANSFDEKFN	-0.479 ± 1
RRYDAVR	1.3 ± 0.22
WGESHWVASFFKFVRGSWDG	-0.112 ± 0.54
RPKYIWDCWCTCFHFS	3.63 ± 0.088
SFSANADYGWNDRTNFFSVF	inactive
WCGLISASYTLIHSNRFMKL	-1.04 ± 1.1
YMDSKSNLARTFVRVCGLLG	0.097 ± 1.1
FTSASQFNNTGFCLI	-0.23 ± 0.79
WDVKRIRKVSFDFVSRGWKG	-0.293 ± 0.32
LSLNG	-0.955 ± 0.39
NLNMVTWVRQTHI	-0.726 ± 0.32

Substance	amyloid nucleation score
KQENMPDSAVVYCRRWGSDM	0.057 ± 0.76
CIPRRGY	0.713 ± 0.74
QCTHPGLVVIYRSLAKDYLS	-0.285 ± 0.48
GLRCRYPSRPVTCGLLWGCG	0.089 ± 0.37
IHVICCAGRVARCFVSEIMG	0.674 ± 0.48
YVPYLLTLCCRCSSLGFR	-1.08 ± 1.1
LFRGRMPFPRDSEYLRNRWK	-0.287 ± 0.28
FSSCSDRLGHGLNSLTKHLI	-0.737 ± 0.39
WGNHSYLTVYRFFIRNWDVI	-0.81 ± 0.55
FFAKCELVSWDFDKSLGSSM	-0.437 ± 0.34
RCQLRALRCPFMSTVLRCSY	0.803 ± 0.28
LGTIGYVDCFIDSITCYMVL	7.953 ± 0.028
GFVINFYLNGVALQRVILAF	inactive
IQSDLNNLLMHVRVFMCSAV	4.05 ± 0.065
GRVWVW	0.718 ± 0.57
CTTFSFADIEFVMKRTRAIL	inactive
SYPDELNLEFGCYHQSWTYF	3.67 ± 0.058
MKLNVWGFFDGKQRLMESAA	-1.2 ± 1.1
RSLIKSRVIWGRKCSSRFIR	-0.64 ± 0.32
KLSSKDHRFYKVSMKRV	0.247 ± 0.8
ESLEADN	inactive
KINCLFISLGNRSRVVRTS	0.681 ± 0.37
VFLYNIGFK	0.691 ± 0.38
TFKSNLV	0.092 ± 0.17
QIKRQGHLESPSRQR	0.128 ± 0.37

Substance	amyloid nucleation score
SWTLFKTLMWIRHILFVECR	-0.973 ± 0.55
NADGYSLMQRSNFSQSNGYL	inactive
TMYYVTGGV	2.44 ± 0.056
HNYSD	0.187 ± 0.56
TCTQPFLVGCVERSLYES	-0.317 ± 0.28
NWPGCVHNTVISDLGRVHCM	-0.853 ± 0.56
NIRAKNRDFRLGLANRKETA	1.15 ± 0.27
QQMSIHRYADGVFELGIPVM	0.11 ± 0.54
LAKGPSQDYGAVPHKVMFHS	0.961 ± 0.58
VSPLALDQVTVSMVAMGIEG	0.999 ± 0.29
QGILGSFIGKRCGFTRLKTL	inactive
KPLNVHELIVSYEYYLLFCQ	inactive
EQMGCTGLVFNVCEGFEDVM	3.44 ± 0.059
VPSSNFVWVFLRLKS	-0.996 ± 0.49
VLDINIFMISYCFHMHYDQV	5.49 ± 0.091
QWYPNFHFHAISLCKYTGQG	0.017 ± 0.19
EMYVNFMHVDGDGVPQHDAW	0.929 ± 0.37
FKGDVHANHFICQMLFAPFR	8.596 ± 0.057
CFQSRYLTRSGLKVWHTKGD	0.631 ± 0.37
GSRAFALSTCCFMKYGSGMG	8.075 ± 0.078
LHSSSHVGGYSVGSRSFIHG	0.294 ± 1.1
HDYVRLPEWFLSMGDHMYMC	-0.356 ± 1.1
IIADCTVARARHCLE	0.276 ± 1
LTYYTNRTQYLML	-0.424 ± 1.1
NQRIGKTGFYSRSRARLNKT	3.37 ± 0.06

Substance	amyloid nucleation score
LGSGVILLVY	-0.643 ± 1
ICVYSTRTDKMSCRPF	0.856 ± 0.6
KYSAYWG	0.518 ± 0.4
LMAKLPAINEYPPF	-0.04 ± 0.56
TSNSII	-0.876 ± 0.49
SSSRGRVCP	0.012 ± 0.63
YITLQLVASRRRS	6.186 ± 0.045
NEHMIHIKSDLRYSAESKPY	0.503 ± 0.18
MWRAQFIYLRMQLVVACVGI	0.394 ± 0.33
SCMYIFLFLNSNIQLIVWDV	-0.137 ± 1.1
VHTMY	-0.299 ± 1.1
IVLAYSKTPREVN	-0.086 ± 0.65
FFCPRGRAFLSSRM	-0.788 ± 0.79
SIRSKGDILSCSRTTFC	5.32 ± 0.071
MLTFSTNDFVRFVMHVAQWD	2.1 ± 0.22
IFGFGMFKWKTFLTLSVFV	-0.223 ± 0.76
TLPSPIRYRVNTNNRM	0.397 ± 0.54
ESYRPPVKTFGLGIRMGLFV	-0.975 ± 1.1
CVPVYVKRIECHLPSGCTAV	-0.345 ± 0.3
WMVIHSGADCQCL	0.605 ± 0.36
NFLLSL	0.322 ± 0.47
SSRYSVIVVYMMGAPSLVGQ	inactive
RPPPHCSCSSYSWDMYCILN	8.58 ± 0.072
VHVCVVACFACFSANSEKGG	10.79 ± 0.042
FVFRWNSVPIRLRVEQGCVF	0.532 ± 0.47

Substance	amyloid nucleation score
SWCACSLGSQYGTMSGWLLY	0.162 ± 0.37
RMSIFPGH	-1.04 ± 1.1
ALDHSV	-0.271 ± 1
ITLFDHRSSKTTLKDFAENT	-0.137 ± 1.1
VLKQLLFFS	4.357 ± 0.039
YWLPRCKLVFV	0.017 ± 0.25
AFRGSYLKFSESTCTIGSLW	2.12 ± 0.13
PKFLSFADSAFLICCRAIVF	6 ± 0.08
SLFGQLSCQASCRSSKDGGN	6.375 ± 0.061
IDNLFWPRLSGPDFVI	-1.7 ± 1.1
WLFTRRTLVWQSTHPNVMTT	inactive
AIFGFTVVLVMFMRFLQDTC	0.732 ± 0.22
YYSAHAKSAGLM	1.2 ± 0.48
SYVGMFRTLDVKLRLNKCGY	-0.038 ± 1.1
KELDLDFRCFQYYNVVVVPQ	2.33 ± 0.091
RNFPMVFCAMV	inactive
DTIGAATLTITVWNSFMVGP	4.15 ± 0.076
IVLSSYLIWLD	inactive
FSTWSTLDSVACW	inactive
DFMIKSISVLFTVSISSNRV	-1.69 ± 0.73
VECIRSVLVFFVFWLRSIFA	-1.38 ± 0.55
TFAVFSYLRFIATNSGNIKA	-0.606 ± 0.48
AISSRLILLTPRAKSFVPSD	-0.247 ± 0.65
AGYLNRNHLLRMLYWCSCFG	inactive
KFFFSCTTKFL	3.06 ± 0.1

Substance	amyloid nucleation score
FTFYR	1.08 ± 0.41
GLRFVYLIYTGRS	-0.497 ± 0.64
FQLPFIVFRRMIVYLKWRWG	-1.05 ± 0.78
IFGSWSSIMCLTKFKCSLGG	2.8 ± 0.081
FMLRICPGYAKGRCISWHSR	0.396 ± 0.46
RVRLTRSSSCPNSVSFCGVA	1.29 ± 0.24
MCEFLIYWIYNFSFVSSPRL	0.157 ± 1
SCDWRAGPSSATRTR	1.24 ± 0.35
WSDGLSPVKLVRLS	3.91 ± 0.094
CWKVREENRVVRCTHSYFLE	-1.03 ± 0.55
CIRMNRISLGNSICWCAPNM	7.922 ± 0.047
AALCGLKFVRERKWRKSILS	0.345 ± 0.65
VHHLDNYLQAN	-0.659 ± 0.34
PDSYGNFHHSSYNHDHNLVH	inactive
LGMFSYIS	0.105 ± 0.44
TSSSYTWLIKSMRVFTNYNV	-1.32 ± 0.38
FHVEHGAWWCIGDRFVVPGF	0.541 ± 0.2
YFGTVHAILGFICLCLIIFQ	3.66 ± 0.085
YVLSCDPLVRYQGLEDRQQS	0.31 ± 0.62
GNCLEYIVRNTIANKRSRML	-0.114 ± 1
GDSIDARGRVQAPQSKEGLR	1.12 ± 0.42
